Numbering of substitutions follows the chain as printed. Each block holds one binder with its values, some of them ahead of it.
Assays:
[1] = target: T1, his-tagged human CDH6 extracellular region protein (hCDH6 ECD-his) (human, UniProt P55285 19-615); assay: ELISA, coated antigen
T1 construct: also called Human CDH6-his; hCDH6-his; not shown: his tag
T1 sequence: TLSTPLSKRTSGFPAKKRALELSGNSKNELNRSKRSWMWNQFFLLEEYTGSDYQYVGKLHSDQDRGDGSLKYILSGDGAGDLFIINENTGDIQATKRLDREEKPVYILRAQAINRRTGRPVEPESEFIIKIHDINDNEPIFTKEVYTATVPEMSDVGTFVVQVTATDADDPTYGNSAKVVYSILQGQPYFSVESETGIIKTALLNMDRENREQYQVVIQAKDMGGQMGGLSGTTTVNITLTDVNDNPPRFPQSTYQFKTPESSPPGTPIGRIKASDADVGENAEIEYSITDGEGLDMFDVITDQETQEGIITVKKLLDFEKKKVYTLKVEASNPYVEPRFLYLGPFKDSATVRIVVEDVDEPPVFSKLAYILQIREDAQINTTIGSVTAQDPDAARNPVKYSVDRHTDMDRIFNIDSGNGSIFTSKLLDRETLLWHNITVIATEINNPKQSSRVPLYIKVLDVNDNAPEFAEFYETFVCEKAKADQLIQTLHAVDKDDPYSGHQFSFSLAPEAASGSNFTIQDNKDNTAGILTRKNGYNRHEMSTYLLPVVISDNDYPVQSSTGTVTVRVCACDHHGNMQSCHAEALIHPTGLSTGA
Experimental: Human CDH6 protein (hCDH6 ECD-his, conventionally synthesized), monkey CDH6 protein (cynoCDH6 ECD-his, conventionally synthesized; the cynoCDH6 ECD sequence was derived from Uniprot #A0A2K5TW62 (19-615)), and murine CDH6 protein (mCDH6 ECD-his, conventionally synthesized; the mCDH6 ECD sequence was derived from Uniprot #P97326 (19-615)) were diluted with PBS to a final concentration of 1 μg/mL, and added to a 96-well ELISA plate at 100 μL/well. The plate was incubated at 4° C. overnight. The next day, the plate was washed 3 times with a plate washing solution (PBS+0.01% (v/v) Tween 20), and a blocking buffer (PBS+0.01% (v/v) Tween 20+2% (w/w) BSA) was added for blocking at room temperature for 2 h. The blocking buffer was discarded, and the plate was washed 3 times. The chimeric antibodies were diluted with 1% BSA+PBS (purchased from Cytiva, Cat. No. SH30264.01) and added to the 96-well plate at 50 μL/well. After incubation at 37° C. for 2 h, the plate was washed 3 times with a plate washing solution. […] The plate was incubated at 37° C. for 1 h and then washed 5 times with a plate washing solution. A TMB substrate (purchased from Seracare, Cat. No. 5120-0077) was added at 50 μL/well and incubated at room temperature for 10 min, then a stop solution (1.0 N HCl) was added at 50 μL/well. OD450 nm values were read using a microplate reader (Biotek). Analysis was performed by the GraphPad Prism software, data were fitted, and EC50 values were calculated. The chimeric antibodies tested all had strong binding to the human CDH6 protein, the monkey CDH6 protein, and the murine CDH6 protein.
(§1) According to the above sequences, heavy chain (HC) and light chain (LC) plasmids were constructed (the nucleic acid sequences encoding the VH and VL of the antibodies were recombined into an expression vector carrying a signal peptide (SEQ ID NO: 132, […]) and a heavy chain constant region/light chain constant region sequence to obtain recombinant plasmids expressing VH-CH1-Fc/VL-CL).

[2] = target: T2, human CDH6 on tumor cells (OVCAR3 cells, PA-1 cells) (human, UniProt P55285 54-790); assay: FACS, PA-1 cells
T2 sequence: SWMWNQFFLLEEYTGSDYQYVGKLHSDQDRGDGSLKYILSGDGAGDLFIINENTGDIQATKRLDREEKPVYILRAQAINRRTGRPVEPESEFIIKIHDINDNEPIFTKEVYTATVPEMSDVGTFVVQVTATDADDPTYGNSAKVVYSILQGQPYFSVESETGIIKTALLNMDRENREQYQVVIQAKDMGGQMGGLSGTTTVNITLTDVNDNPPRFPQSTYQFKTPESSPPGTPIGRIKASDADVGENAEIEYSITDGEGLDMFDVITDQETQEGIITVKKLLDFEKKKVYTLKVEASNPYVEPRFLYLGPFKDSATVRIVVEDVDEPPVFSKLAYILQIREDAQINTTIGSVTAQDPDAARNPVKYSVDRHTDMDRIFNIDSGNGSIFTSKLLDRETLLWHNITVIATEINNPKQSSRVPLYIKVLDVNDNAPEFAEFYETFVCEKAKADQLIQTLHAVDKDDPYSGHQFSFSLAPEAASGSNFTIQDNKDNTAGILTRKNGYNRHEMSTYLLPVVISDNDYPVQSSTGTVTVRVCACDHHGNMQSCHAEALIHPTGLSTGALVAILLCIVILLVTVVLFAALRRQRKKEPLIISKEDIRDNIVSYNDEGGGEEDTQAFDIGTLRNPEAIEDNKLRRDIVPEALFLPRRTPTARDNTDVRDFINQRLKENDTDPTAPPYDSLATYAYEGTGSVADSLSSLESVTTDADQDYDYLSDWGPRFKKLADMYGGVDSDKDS
Experimental: OVCAR3 cells with high expression of CDH6 and PA-1 cells with moderate expression of CDH6 were used to detect the binding activity of the antibodies to the cells. […] The cells were washed once with PBS, counted, resuspended to 2×10⁶ cells/mL in an FACS buffer (PBS+2% FBS), and then added to a 96-well plate at 50 μL/well. The chimeric antibodies were diluted with FACS buffer (PBS+2% FBS) and added to the 96-well plate at 50 μL/well, and the plate was incubated at 4° C. for 1 h. […] The dilution was added to the 96-well plate at 50 μL/well, and the plate was incubated at 4° C. for 1 h. After the plates were centrifuged and washed 2 times with PBS, the cells were resuspended in an FACS buffer. The mean fluorescence intensity (MFI) was measured using FACS Canton II (BD). Analysis was performed by the GraphPad Prism software, data were fitted, and EC50 values were calculated. The chimeric antibodies tested had strong binding to both OVCAR3 cells and PA-1 cells.
as §1, with “VH-CH1-Fc/VL-CL). According to the expression and purification methods in Example 2, the hCDH6-14 humanized antibodies were obtained, and the binding activity of the humanized antibodies was detected by ELISA and FACS (see 2.2 and 2.3 for the method).” for “VH-CH1-Fc/VL-CL).”

B1: hCDH6-14-H1L1 (antibody, V domains shown)
VH: EVQLVQSGAEVKKPGASVKVSCKASGYTFTDNYINWVRQAPGQRLEWMGWIYPGTGNSYYNEKFKGRVTITVDTSASTAYMELSSLRSEDTAVYYCASSYGDSFDYWGQGTTVTVSS
VL: DIQMTQSPSSLSASVGDRVTITCRASQDIRNYLNWYQQKPGKAFKLLISYTSRLHSGVPSRFSGSGSGTDFTFTISSLQPEDIATYYCQQYSQLPWTFGGGTKVEIK
notes: Humanized
- EC50 [1]: 0.059 nM
- Max OD450 [1]: 2.69 OD450
- EC50 [2]: 0.26 nM
- Max MFI [2]: 3680 MFI

B2: hCDH6-14-H1L3 (antibody, V domains shown)
VH: B1 VH
VL: DIVMTQSPDSLAVSLGERATINCRASQDIRNYLNWYQQKPGQTPKLLISYTSRLHSGVPDRFSGSGSGTDFTLTISSLQAEDVAVYYCQQYSQLPWTFGGGTKVEIK
notes: Humanized
- EC50 [1]: 0.056 nM
- Max OD450 [1]: 2.68 OD450
- EC50 [2]: 0.27 nM
- Max MFI [2]: 3580 MFI

B4: hCDH6-14-H1L2 (antibody, V domains shown)
VH: B1 VH
VL: B1 VL with K42G, F44P
notes: Humanized
- EC50 [1]: 0.128 nM
- Max OD450 [1]: 2.84 OD450
- EC50 [2]: 0.22 nM
- Max MFI [2]: 3600 MFI

B5: hCDH6-14-H5L2 (antibody, V domains shown)
VH: B1 VH with V5Q
VL: B1 VL with K42G, F44P
notes: Humanized
- EC50 [1]: 0.109 nM
- Max OD450 [1]: 2.58 OD450
- EC50 [2]: 0.23 nM
- Max MFI [2]: 3320 MFI

B14: hCDH6-14-H2L2 (antibody, V domains shown)
VH: B1 VH with V2I
VL: B1 VL with K42G, F44P
notes: Humanized
- EC50 [1]: 0.098 nM
- Max OD450 [1]: 2.54 OD450
- EC50 [2]: 0.27 nM
- Max MFI [2]: 3930 MFI

B15: hCDH6-14-H3L3 (antibody, V domains shown)
VH: B1 VH with V2I, I70L
VL: B2 VL
notes: Humanized
- EC50 [1]: 0.113 nM
- Max OD450 [1]: 2.56 OD450
- EC50 [2]: 0.19 nM
- Max MFI [2]: 3470 MFI

B17: hCDH6-14-H3L1 (antibody, V domains shown)
VH: B1 VH with V2I, I70L
VL: B1 VL
notes: Humanized
- EC50 [1]: 0.096 nM
- Max OD450 [1]: 2.62 OD450
- EC50 [2]: 0.26 nM
- Max MFI [2]: 3490 MFI

Further lines, results first:

- EC50 [1]: 0.074 nM
- Max OD450 [1]: 2.63 OD450
- EC50 [2]: 0.23 nM
- Max MFI [2]: 3490 MFI
B3: hCDH6-14-H3L2 (antibody, V domains shown)
VH: B1 VH with V2I, I70L
VL: B1 VL with K42G, F44P
notes: Humanized

- EC50 [1]: 0.089 nM
- Max OD450 [1]: 2.64 OD450
- EC50 [2]: 0.26 nM
- Max MFI [2]: 3570 MFI
B6: hCDH6-14-H4L2 (antibody, V domains shown)
VH: B1 VH with R44G
VL: B1 VL with K42G, F44P
notes: Humanized

- EC50 [1]: 0.052 nM
- Max OD450 [1]: 2.62 OD450
- EC50 [2]: 0.25 nM
- Max MFI [2]: 3820 MFI
B7: hCDH6-14-H4L1 (antibody, V domains shown)
VH: B1 VH with R44G
VL: B1 VL
notes: Humanized

- EC50 [1]: 0.079 nM
- Max OD450 [1]: 2.81 OD450
- EC50 [2]: 0.25 nM
- Max MFI [2]: 3780 MFI
B8: hCDH6-14-H5L1 (antibody, V domains shown)
VH: B1 VH with V5Q
VL: B1 VL
notes: Humanized

- EC50 [1]: 0.093 nM
- Max OD450 [1]: 2.62 OD450
- EC50 [2]: 0.26 nM
- Max MFI [2]: 3540 MFI
B9: hCDH6-14-H6L2 (antibody, V domains shown)
VH: B1 VH with Y95L
VL: B1 VL with K42G, F44P
notes: Humanized

- EC50 [1]: 0.092 nM
- Max OD450 [1]: 2.72 OD450
- EC50 [2]: 0.21 nM
- Max MFI [2]: 3600 MFI
B10: hCDH6-14-H5L3 (antibody, V domains shown)
VH: B1 VH with V5Q
VL: B2 VL
notes: Humanized

- EC50 [1]: 0.076 nM
- Max OD450 [1]: 2.65 OD450
- EC50 [2]: 0.25 nM
- Max MFI [2]: 3560 MFI
B11: hCDH6-14-H2L1 (antibody, V domains shown)
VH: B1 VH with V2I
VL: B1 VL
notes: Humanized

- EC50 [1]: 0.084 nM
- Max OD450 [1]: 2.67 OD450
- EC50 [2]: 0.27 nM
- Max MFI [2]: 3870 MFI
B12: hCDH6-14-H4L3 (antibody, V domains shown)
VH: B1 VH with R44G
VL: B2 VL
notes: Humanized

- EC50 [1]: 0.067 nM
- Max OD450 [1]: 2.7 OD450
- EC50 [2]: 0.24 nM
- Max MFI [2]: 3700 MFI
B13: hCDH6-14-H6L1 (antibody, V domains shown)
VH: B1 VH with Y95L
VL: B1 VL
notes: Humanized

- EC50 [1]: 0.09 nM
- Max OD450 [1]: 2.48 OD450
- EC50 [2]: 0.22 nM
- Max MFI [2]: 3780 MFI
B16: hCDH6-14-H2L3 (antibody, V domains shown)
VH: B1 VH with V2I
VL: B2 VL
notes: Humanized

Source: patent US20260234242A1 (HAINAN SIMCERE ZAIMING PHARMACEUTICAL, published 2026)
